Data set [1] addresses T1, His6-CaCrz1 (Candida albicans, UniProt Q5A4H5 1-731).
T1 sequence: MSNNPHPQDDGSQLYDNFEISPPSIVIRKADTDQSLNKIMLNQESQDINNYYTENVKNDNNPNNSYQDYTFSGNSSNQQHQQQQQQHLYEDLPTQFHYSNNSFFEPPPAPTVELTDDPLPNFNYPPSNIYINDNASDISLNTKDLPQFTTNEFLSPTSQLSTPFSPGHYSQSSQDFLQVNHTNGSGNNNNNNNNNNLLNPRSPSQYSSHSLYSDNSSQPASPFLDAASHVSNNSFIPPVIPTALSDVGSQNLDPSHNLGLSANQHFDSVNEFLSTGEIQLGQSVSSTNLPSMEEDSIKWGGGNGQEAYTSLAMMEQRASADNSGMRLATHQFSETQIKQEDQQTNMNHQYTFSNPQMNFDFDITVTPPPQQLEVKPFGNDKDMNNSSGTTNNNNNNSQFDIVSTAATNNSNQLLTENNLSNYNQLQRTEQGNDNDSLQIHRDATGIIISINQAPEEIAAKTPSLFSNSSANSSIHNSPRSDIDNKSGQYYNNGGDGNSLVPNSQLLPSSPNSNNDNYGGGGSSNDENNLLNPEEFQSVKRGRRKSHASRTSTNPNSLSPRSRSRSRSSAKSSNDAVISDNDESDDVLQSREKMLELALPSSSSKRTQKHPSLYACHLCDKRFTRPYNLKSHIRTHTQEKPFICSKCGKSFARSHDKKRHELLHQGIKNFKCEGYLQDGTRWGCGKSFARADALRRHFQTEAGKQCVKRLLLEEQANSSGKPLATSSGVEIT
In words: EMSA; 1 ug protein; EMSA with DIG-labelled probes and 1 ug His6-Crz1; buffer, salt, pH and temperature not given in the material. The following applies: protein: recombinant; tags: N-terminal His6 (pET28a(+)); label: DIG; blunt. Background: A gel shift assay detects complexes by their altered migration in electrophoresis.

The target of data set [2] is T1, His6-CaCrz1. In words: EMSA; 1 ug protein; abolished by unlabelled Probe 1; EMSA with DIG-labelled probes and 1 ug His6-Crz1; buffer, salt, pH and temperature not given in the material. The following applies: protein: recombinant, tags: N-terminal His6 (pET28a(+)), label: DIG.
The target in data set [3] is T1, His6-CaCrz1. In words: EMSA; 1 ug protein; abolished by unlabelled Probe 2; EMSA with DIG-labelled probes and 1 ug His6-Crz1; buffer, salt, pH and temperature not given in the material. The following applies: protein: recombinant; tags: N-terminal His6 (pET28a(+)); label: DIG.

B1: CRZ1 Probe 3 (dsDNA)
DNA 1: TTTCAACTTCCATCATATTTACCACAATTGGATTAACTTGGTTAT
DNA 2: ATAACCAAGTTAATCCAATTGTGGTAAATATGATGGAAGTTGAAA
For the molecule B1, in the data set with His6-CaCrz1 [1], the binding result is on record as “no binding”.

B2: CRZ1 Probe 4 (dsDNA)
DNA 1: AACAATTTAATCTGGTCATTTCATTTCCCCTAACAGCATCTTTCCAAGTT
DNA 2: AACTTGGAAAGATGCTGTTAGGGGAAATGAAATGACCAGATTAAATTGTT
Regarding B2, in the data set with His6-CaCrz1 [1], the binding result was “no binding”.

B3: CRZ1 Probe 1 (dsDNA)
DNA 1: TGTGTGTGTGTGTGACAGTCCAGTCCCTCAACTAATTTAAAACAGTTTTT
DNA 2: AAAAACTGTTTTAAATTAGTTGAGGGACTGGACTGTCACACACACACACA
On to B3, for which, in the data set with His6-CaCrz1 [2] (blunt), the binding result is given as “binds”.

B4: UTR2 Probe 1 EMSA_UTR2_F/R(H) (dsDNA)
DNA 1: CTTTCATTTCATTTCTTTTCTCAACGCCTCAAAATTTGATTCTTAAAATT
DNA 2: AATTTTAAGAATCAAATTTTGAGGCGTTGAGAAAAGAAATGAAATGAAAG
As for B4, the binding result with His6-CaCrz1 [2] is “binds”.

B5: CRZ1 Probe 2 (dsDNA)
DNA 1: ATTAGAATAGAATATTATCACAGACCCCCCCAATATCTATTTATCAACCT
DNA 2: AGGTTGATAAATAGATATTGGGGGGGTCTGTGATAATATTCTATTCTAAT
Turning to B5, the binding result in the data set with His6-CaCrz1 [1] was “no binding”.

B6: UTR2 Probe 2 EMSA_UTR2_F/R(M) (dsDNA)
DNA 1: GGCTTAAATTCTTGAGTTGTGGGCTTTGAATTTCTTTCATTTCAT
DNA 2: ATGAAATGAAAGAAATTCAAAGCCCACAACTCAAGAATTTAAGCC
In the case of B6, the binding result in the data set with His6-CaCrz1 [3] is “binds”.

These data come from PMC6942403, “RNA sequencing reveals an additional Crz1-binding motif in promoters of its target genes in the human fungal pathogen Candida albicans”.
